Test results taken from paper PMC4423116, “Tarantula toxins use common surfaces for interacting with Kv and ASIC ion channels” (eLife, 2015).

Experiments:
Kv2.1 channel = target: T1, Kv2.1 channel (Rattus norvegicus, UniProt P15387); experiment: Inhibition of Kv2.1 channel currents in Xenopus oocytes (two-electrode voltage clamp), apparent affinity; format: cell-based
T1 construct: expressed in transfected cells; host or cells: Xenopus laevis oocytes, cRNA injection
T1 sequence (P15387 1-857): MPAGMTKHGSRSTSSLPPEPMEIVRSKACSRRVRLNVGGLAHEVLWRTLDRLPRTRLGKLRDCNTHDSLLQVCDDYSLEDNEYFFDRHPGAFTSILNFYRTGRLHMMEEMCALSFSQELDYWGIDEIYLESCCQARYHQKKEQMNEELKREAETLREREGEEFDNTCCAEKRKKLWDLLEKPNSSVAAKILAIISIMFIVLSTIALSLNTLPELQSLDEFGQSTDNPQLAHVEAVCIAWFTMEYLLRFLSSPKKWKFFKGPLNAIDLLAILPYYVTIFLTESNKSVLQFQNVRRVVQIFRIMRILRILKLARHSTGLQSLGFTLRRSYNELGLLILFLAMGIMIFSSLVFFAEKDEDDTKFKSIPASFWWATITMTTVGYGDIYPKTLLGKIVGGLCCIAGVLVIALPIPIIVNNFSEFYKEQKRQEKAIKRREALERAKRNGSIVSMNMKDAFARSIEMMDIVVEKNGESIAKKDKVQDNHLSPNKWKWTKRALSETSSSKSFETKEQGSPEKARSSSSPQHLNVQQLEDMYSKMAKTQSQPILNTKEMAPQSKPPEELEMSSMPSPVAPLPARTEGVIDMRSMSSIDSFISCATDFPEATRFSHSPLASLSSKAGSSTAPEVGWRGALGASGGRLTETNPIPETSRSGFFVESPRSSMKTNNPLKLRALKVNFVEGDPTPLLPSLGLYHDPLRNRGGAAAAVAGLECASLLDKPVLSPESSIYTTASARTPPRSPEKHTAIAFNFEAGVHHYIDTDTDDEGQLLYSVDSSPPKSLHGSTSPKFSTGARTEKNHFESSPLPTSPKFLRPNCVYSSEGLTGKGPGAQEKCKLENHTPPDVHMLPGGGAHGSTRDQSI

[1] = Acrylamide quenching of Trp fluorescence (Stern-Volmer), protection by lipid vesicles; format: physicochemical; conditions: n = 3
Experimental: (§1) Protection of tryptophan fluorescence from acrylamide quenching was examined in the absence and presence of lipids (toxin: lipid = 1:500) by titration with increasing concentrations of acrylamide ([Milescu et al., 2007]). The Stern–Volmer quenching constant (KSV) was calculated based on the best fits of the following equation to the data: F0/F = 1 + KSV[Q], where F0 and F are fluorescence of the toxin in the absence and presence of acrylamide, and [Q] is the concentration of acrylamide. […] A solution containing ∼ 2 µM toxin and 0.3 M acrylamide was stirred continuously with addition of increasing concentrations of LUVs composed of 1:1 mixture of POPC and POPG. Fluorescence spectra (averaging three spectra) were recorded between 300 and 450 nm (5 nm band pass, 0° polarizer) using an excitation wavelength of 280 nm (5 nm band pass, 90° polarizer) (SPEX FluoroMax 3 spectrofluorometer) and corrected for vesicle scattering. For calculating mole–fraction partitioning coefficients (Kdx), the maximal fluorescence intensity (F at λmax) was measured and normalized to the zero lipid fluorescence intensity (F0). […]

[2] = Depth-dependent quenching of Trp fluorescence by brominated (diBr) phosphatidylcholines; format: physicochemical; conditions: 6,7-, 9,10- or 11,12-diBr PC : POPG 1:1 vesicles, 1.2 mM lipid
Experimental: For depth-dependent fluorescence quenching experiments with brominated lipids, LUVs contained a 1:1 molar ratio of POPG and POPC 6,7-, 9,10-, or 11,12-1-palmitoyl-2-stearoyl(dibromo)-sn-glycero-3-phosphocholine (diBr; Avanti Polar Lipids, Alabaster, AL). Fluorescence spectra were recorded between 300 and 450 nm using an excitation wavelength of 280 nm, corrected for vesicle scattering and normalized to the zero lipid fluorescence intensity.

[3] = Acrylamide dequenching by lipid vesicles (quenching-enhanced fluorescence titration); format: physicochemical; conditions: LUVs POPC:POPG 1:1
Experimental: as §1

ASIC1a = conditions: ref Chen et al., 2006; Dawson et al., 2012; cited from earlier work
Excerpt: PcTx1 also contains an Arg finger motif composed of R26, R27 and R28 that is required for […] of ASIC through interactions with channel residues situated in a crevice between subunits. In the case of voltage-sensor toxins such as hanatoxin and GxTx-1E, the S3b helix within the voltage-sensing domains of Kv channels co ...

[4] = Membrane partitioning into lipid vesicles detected with intrinsic Trp fluorescence (blue shift); format: physicochemical; conditions: lipid vesicles POPC:POPG 1:1
Experimental: Large unilamellar vesicles (LUVs) were prepared by drying the phospholipids from a chloroform solution under a nitrogen stream. The dried lipid film was rehydrated in buffer containing 10 mM HEPES, 1 mM EDTA, pH 7.6 (HEB). The resulting dispersions were extruded through 100 nm pore size polycarbonate filters (Millipore Corp.) till the solution became clear. All fluorescence measurements were performed in quartz cuvettes with 1 cm path length. Fluorescence spectra (averaging three spectra) were recorded between 300 and 450 nm (5 nm band pass, 0° polarizer) using an excitation wavelength of 280 nm (5 nm band pass, 90° polarizer) (SPEX FluoroMax 3 spectrofluorometer) and corrected for vesicle scattering. […] Mole-fraction partitioning coefficients (Kx) were calculated by measuring the fluorescence intensity (F) at 320 nm and normalizing to the zero lipid fluorescence intensity (F0) ([Ladokhin et al., 2000]; [Milescu et al., 2007]). Kx was calculated based on the best fits of the following equation to the data: F/F0(L) = 1 + (F/F0^max − 1)Kx[L]/([W] + Kx[L]), where F/F0(L) is the change in fluorescence intensity for a given concentration of lipid, F/F0^max is the maximum fluorescence increase at high lipid concentrations, [L] is the average available lipid concentration (60% of total lipid concentration) and [W] is the molar concentration of water (55.3 M).

Kv2.1-ASIC1a chimeras = experiment: Effect of PcTx1 on G-V relations of Kv2.1-ASIC1a chimeras in oocytes; format: cell-based; conditions: 5 µM PcTx1, extracellular application, external 50 mM KCl, n = 3
Excerpt: Chimeras were generated using sequential PCR with the Kv2.1∆7 channel ([Li-Smerin and Swartz, 1998]) as template. Primers encoding the 9-amino acid sequence of helix-5 from ASIC1a were utilized for overlap PCR. The DNA sequence of all constructs and mutants was confirmed by automated DNA sequencing. Complementary RNA (cRNA) was synthesized using T7 polymerase (mMessage mMachine kit; Ambion) after linearizing the DNA with appropriate restriction enzymes.
Oocytes from Xenopus laevis were removed surgically and incubated with agitation for 1 hr in a solution containing (in mM) 82.5 NaCl, 2.5 KCl, 1 MgCl2, 5 HEPES, pH 7.6 (with NaOH), and collagenase (2 mg/ml; Worthington Biochemical). Defolliculated oocytes were injected with cRNA encoding the Kv2.1 channel constructs and incubated at 17°C in a solution containing (in mM) 96 NaCl, 2 KCl, 1 MgCl2, 1.8 CaCl2, 5 HEPES, pH 7.6 with NaOH, and gentamicin (50 μg/ml, GIBCO-BRL), for 16–72 hr before electrophysiological recording. Oocyte membrane voltage was controlled using an OC-725C oocyte clamp (Warner Instruments). Data were filtered at 1 kHz and digitized at 10 kHz. Microelectrode resistances were 0.1–1 MΩ when filled with 3 M KCl. […] All experiments were performed at room temperature (∼22°C). Voltage-activations relationships in the absence and presence of different concentrations of the synthesized toxin were recorded. […]

[5] = analysis of quenching profiles with brominated lipids; ref Phillips et al., 2005; Swartz, 2007; Jung et al., 2010; Mihailescu et al., 2014; cited from earlier work
Excerpt: The results thus far reveal that both classes of tarantula toxins interact quite favorably with lipid membranes. […] For example, the solvent accessible surface area for the hydrophobic surface of PcTx1 is 380 Å^2, which compares with a value of 703 Å^2 for GxTx-1E. In addition, the hydrophobic surfaces on the two toxins are situated on distinct surfaces (Figure 1D,E). These differences between PcTx1 an ...

With `CC(C)C[C@@H]1NC(=O)CNC(=O)[C@H](Cc2c[nH]c3ccccc23)NC(=O)[C@H](CCCCN)NC(=O)[C@@H]2CCCN2C(=O)[C@H](CO)NC(=O)[C@@H]2CSSC[C@@H]3NC(=O)[C@H](CCCCN)NC(=O)[C@H](Cc4c[nH]c5ccccc45)NC(=O)[C@H](Cc4c[nH]c5ccccc45)NC(=O)[C@H](Cc4ccccc4)NC(=O)CNC(=O)CNC(=O)[C@@H](NC(=O)[C@H](CCC(=O)O)NC(=O)CNC(=O)[C@@H](N)CCC(=O)O)CSSC[C@H](NC(=O)[C@H](CSSC[C@@H](C(=O)N[C@@H](CC(N)=O)C(=O)N[C@@H](Cc4ccccc4)C(=O)N4CCC[C@H]4C(=O)N[C@@H](C)C(=O)N4CCC[C@H]4C(=O)O)NC1=O)NC(=O)[C@H](C)NC(=O)[C@@H]1CCCN1C(=O)[C@H](CCCCN)NC(=O)CNC(=O)[C@H](CO)NC(=O)CNC3=O)C(=O)N1CCC[C@H]1C(=O)N[C@@H](CCCCN)C(=O)N[C@@H](Cc1ccc(O)cc1)C(=O)N[C@@H](C(C)C)C(=O)N2` [Nle35A] the “∆∆G (perturbation energy)” value (Kv2.1 channel; from apparent Kd of mutant vs GxTx-1E(Nle), Kv2.1 in oocytes) was 0.19 kcal/mol.
With PcTx1 the “Ksv (Stern–Volmer constant), acrylamide quenching in aqueous solution” value ([1]; toxin ∼2 µM in solution, no lipid) was 29.2 M⁻¹, the “Ksv (Stern–Volmer constant), acrylamide quenching in presence of lipid vesicles” value ([1]; toxin ∼2 µM with 1.0 mM POPC:POPG 1:1 vesicles (toxin:lipid 1:500)) was 11.2 M⁻¹ and the “quenching of Trp fluorescence by brominated lipids (in words)” value [2] was “very weak quenching”. The “Kdx (mole-fraction partitioning coefficient from acrylamide dequenching)” value ([3]; maximal fluorescence intensity vs available lipid, ∼2 µM toxin, acrylamide 0.2 M / 0.3 M (methods), mean ± SEM (n = 3)) was “(4.3 ± 0.6) × 10^6”, the “F/F0^max (dequenching function fit)” value ([3]; maximum fluorescence increase at highest lipid concentration, acrylamide present) was 2.7 ± 0.08 and the “affinity for ASIC1a (in words)” value (ASIC1a) was “nM affinity”. For the same molecule, the “maximal blue shift of Trp emission spectrum upon addition of lipid vesicles” value [4] was about 2 nm, the “effect on the Kv2.1 channel (G-V relation)” value (Kv2.1 channel; 5 µM PcTx1, oocytes, external solution 50 mM KCl, tail currents, n = 3) was “no effect” and the “effect on activity of five Kv2.1-ASIC1a chimeras (G-V relations)” value (Kv2.1-ASIC1a chimeras) was “no discernible effect”.
In the case of hanatoxin, the “position of Trp residues from the center of the bilayer” value [5] is given as 8–9 Å.
